Reference: patent publication US11459364B2, “Calbindin and BH3 domain chimeric proteins and methods for use” (ProDa Biotech LLC, priority 2014, dated 2022)

Tested on: SW620 cells
Assay: Cell viability of SW620 cells by cell counting after treatment with folate-conjugated chimeric proteins
Format: cell-based
Conditions: 5 μM, Calbindin D9k host, folate by disulfide bond via 5 kDa PEG, 48 hours
Protocol: (§1) FIG. 3 illustrates the effects of chimeric proteins having different host peptides and the BH3 domain of Bid on the apoptosis of SW620 cells. […] The SW620 cells were treated with 5 μM of the indicated proteins. The proteins were conjugated to folate by a disulfide bond via a 5 kDa PEG. Cell viability was measured by cell counting 48 hours after treatment with the indicated proteins. Buffer treated cells were used as a reference (100% cell viability). The error bars indicate standard deviations across five repeating experiments.
as §1, with “FIG. 4” for “FIG. 3”, “having a Calbindin D9k host peptide and” for “having”, “different” for “different host peptides and the”, “BH3 domains” for “BH3 domain of Bid”, “(100%” for “(100% cell”
FIG. 7 illustrates the effects of a chimeric protein with a Calbindin D9k host protein, a Bid or Bim BH3 domain, and a conjugated folate on SW620 cells. […] Cell viability was measured by counting cells 48 hours after treatment with the indicated proteins. […]

B1: D-Nox: chimeric protein, Calbindin D9k host with BH3 domain of Noxia, Sequence Id No. 8; tested conjugated to folate (protein)
chain: HMSTKKSPEELKRIFEKYAAKEGDPDQLSKDELKLLIQAEFPCLLKGPNTLDDLFQELDKNPAELEVEMATQLRRFGDKLNFRQKLL
modifications: folate conjugate; Chimeric Variant of human protein and a variant of a BH3 domain
notes: tested conjugated to folate
induction of apoptosis (cell viability), comparison of BH3 domains: most effective in inducing apoptosis
